# Assay results taken from patent publication US20200317768A1 (published 2020).
# Changes are numbered by the printed parent chain.
# T1: human FcγRIIaR extracellular domain with C-terminal His-tag (human, UniProt P12318 34-217)
# T1 construct: Expressed in FreeStyle 293 cells and purified; also called human FcγRIIa (type R); FcgRIIaR; not shown: C-terminal His-tag
# T1 chain: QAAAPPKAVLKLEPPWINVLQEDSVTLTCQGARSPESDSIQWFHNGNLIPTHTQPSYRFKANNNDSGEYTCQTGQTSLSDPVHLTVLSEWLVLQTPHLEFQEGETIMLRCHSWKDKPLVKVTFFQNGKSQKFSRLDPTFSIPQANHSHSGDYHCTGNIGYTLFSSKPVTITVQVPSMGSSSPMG
# T2: human FcγRIIb extracellular domain with C-terminal His-tag (human, UniProt P31994 43-217)
# T2 construct: Expressed in FreeStyle 293 cells and purified; also called humanFcgRIIb; not shown: C-terminal His-tag
# T2 sequence: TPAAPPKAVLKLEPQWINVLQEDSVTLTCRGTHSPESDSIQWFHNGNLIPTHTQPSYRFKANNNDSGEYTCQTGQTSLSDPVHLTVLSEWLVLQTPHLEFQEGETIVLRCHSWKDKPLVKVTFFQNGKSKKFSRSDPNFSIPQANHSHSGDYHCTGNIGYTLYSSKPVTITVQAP
# T3: cynomolgus monkey FcγRIIa1 extracellular domain with C-terminal His-tag (cynomolgus monkey)
# T3 construct: Expressed in FreeStyle 293 cells and purified; also called cyno FcγRIIa1; cynoFcgRIIa1; not shown: C-terminal His-tag
# T3 chain: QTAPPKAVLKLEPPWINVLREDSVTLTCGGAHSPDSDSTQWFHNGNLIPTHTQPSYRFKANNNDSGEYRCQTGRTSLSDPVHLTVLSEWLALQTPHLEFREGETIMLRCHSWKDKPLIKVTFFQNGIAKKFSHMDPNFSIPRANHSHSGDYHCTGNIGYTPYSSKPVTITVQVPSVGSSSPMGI
# T4: human FcγRIIaH extracellular domain with C-terminal His-tag (human, UniProt P12318 34-217)
# T4 construct: Expressed in FreeStyle 293 cells and purified; also called human FcγRIIa (type H); FcgRIIaH; not shown: C-terminal His-tag
# T4 sequence: T1 chain with R134H
# T5: cynomolgus monkey FcγRIIa2 extracellular domain with C-terminal His-tag (cynomolgus monkey)
# T5 construct: Expressed in FreeStyle 293 cells and purified; also called cyno FcγRIIa2; cynoFcgRIIa2; not shown: C-terminal His-tag
# T5 chain: T3 chain with P95T, T121A, I127K, A128S, K130N, D135N, R142Q
# T6: cynomolgus monkey FcγRIIa3 extracellular domain with C-terminal His-tag (cynomolgus monkey)
# T6 construct: Expressed in FreeStyle 293 cells and purified; also called cyno FcγRIIa3; cynoFcgRIIa3; not shown: C-terminal His-tag
# T6 chain: T3 chain with P95T, T121A, A128S, H133P, D135N
# T7: cynomolgus monkey FcγRIIb extracellular domain with C-terminal His-tag (cynomolgus monkey)
# T7 construct: Expressed in FreeStyle 293 cells and purified; also called cyno FcγRIIb; cynoFcγRIIb; not shown: C-terminal His-tag
# T7 chain: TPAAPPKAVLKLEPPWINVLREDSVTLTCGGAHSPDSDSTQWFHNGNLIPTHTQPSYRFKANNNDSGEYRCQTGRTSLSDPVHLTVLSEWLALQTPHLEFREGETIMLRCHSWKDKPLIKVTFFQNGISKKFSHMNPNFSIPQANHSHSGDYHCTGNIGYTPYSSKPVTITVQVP
# B1: M103205H795-MY184 / M103202L889-SK1 (antibody, human IgG1, kappa)
# heavy: QVTLKESGPVLVKPTETLTLTCTVSGIDLSHDDISWVRQAPGKGLEWVGIISYAGSTYYASWAKGRLTISKDTSKNQVVLTMTNMDPVDTATYYCARGVPAYSHGGDLWGQGTLVTVSSASTKGPSVFPLAPSSKSTSGGTAALGCLVKDYFPEPVTVSWNSGALTSGVHTFPAVLQSSGLYSLSSVVTVPSSSLGTQTYICNVNHKPSNTKVDKKVEPKSCDKTHTCPPCPAPELLNGPSVFLFPPKPKDTLMISRTPEVTCVVVDVSEEDPEVKFNWYVDGVEVHNAKTKPREEQYNSTYRVVSVLTVLHQDWLNGKEYKCKVSNKALPAPIEKTISKAKGQPREPQVYTLPPSREEMTKNQVSLTCLVKGFYPSDIAVEWESNGQPENNYKTTPYVLDSDGSFFLYSKLTVDKSRWQQGNVFSCSVMHEALHNHYTQKSLSLSP
# light: DIVMTQSPATLSLSPGERATLSCTSSQSVYHANWLSWFQQKPGQPPKLLIYWASTLAYGVPSRFSGSGSGTDFTLTISSLQPEDAATYYCAGGYGGGRYAFGQGTKVEIKRTVAAPSVFIFPPSDEQLKSGTASVVCLLNNFYPREAKVQWKVDNALQSGNSQESVTEQDSKDSTYSLSSTLTLSKADYEKHKVYACEVTHQGLSSPVTKSFNRGEC
# notes: Position 396 variant derived from MY052, expressed with M103202L889-SK1 as light chain
# Experiments:
# [1] = molecular target: T1, human FcγRIIaR extracellular domain …; assay: SPR (Biacore); KD of SG1 divided by KD of the variant for this FcgR;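 further: relative to parent M103205H795-SG1 carrying the SG1 human heavy chain constant region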
# [2] = molecular target: T2, human FcγRIIb extracellular domain with …; assay: as above
# [3] = molecular target: T3, cynomolgus monkey FcγRIIa1 …; assay: as above
# [4] = molecular target: T8, human FcγRIIIaV extracellular domain with C-terminal His-tag (human, UniProt P08637 17-208); assay: as above
# T8 construct: Expressed in FreeStyle 293 cells and purified; also called FcgRIIIaV; not shown: C-terminal His-tag
# T8 sequence (P08637 17-208 F176V): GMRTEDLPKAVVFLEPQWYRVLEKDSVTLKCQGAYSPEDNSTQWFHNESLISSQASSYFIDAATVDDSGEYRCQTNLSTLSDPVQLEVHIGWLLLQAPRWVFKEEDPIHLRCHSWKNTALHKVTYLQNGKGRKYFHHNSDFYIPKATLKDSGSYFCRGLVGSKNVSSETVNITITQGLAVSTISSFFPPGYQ
# [5] = molecular target: T4, human FcγRIIaH extracellular domain …; assay: as above
# [6] = molecular target: T5, cynomolgus monkey FcγRIIa2 …; assay: as above
# [7] = molecular target: T6, cynomolgus monkey FcγRIIa3 …; assay: as above
# [8] = molecular target: T7, cynomolgus monkey FcγRIIb extracellular …; assay: as above
# [9] = molecular target: T2, human FcγRIIb extracellular domain with …; assay: SPR (Biacore), antibody captured on chip, FcgR extracellular domain as analyte, 25 C
binder,measurement,setting,value
B1,KD fold (SG1 = 1),[1],0.6 fold
same,KD fold (SG1 = 1),[2],4.2 fold
same,KD fold (SG1 = 1),[3],1.7 fold
same,KD fold (SG1 = 1),[4],0.12 fold
same,KD fold (SG1 = 1),[5],0.6 fold
same,KD fold (SG1 = 1),[6],2.6 fold
same,KD fold (SG1 = 1),[7],2 fold
same,KD fold (SG1 = 1),[8],2 fold
same,Kd,[9],1100 nM
